Assay results from US9926369B2, “Methods for treating hepatocellular cancer by administering an anti-Ang-2 antibody” (Regeneron Pharmaceuticals, Inc., priority 2009, dated 2018).

Target: T1, hAng-2FD-mFc S-417-I (Homo sapiens, UniProt O15123, S417I)
T1 construct: made in house
Assay: Ang-2FD-mFc point mutant binding experiment (SPR), S-417-I
Details: S-417-I mutant captured; antibody/peptibody at 100 nM; 25° C.
Source text: To further characterize binding between hAng2 and anti-hAng2 mAbs of the invention, seven variant hAng2-FD-mFc proteins were generated, each containing a single point mutation. Amino acids selected for mutation were based on the difference in sequence between hAng-2 and hAng-1 in the region that interacts with hTie-2 (FIG. 1). In particular, amino acids within the fibrinogen-like domain (FD) of Ang-2 which are believed to interact with Tie-2 based on crystal structure analysis, but which differ from the corresponding amino acid in Ang-1, were individually mutated to the corresponding hAng-1 residue. The results of this example indicate the amino acid residues of hAng-2 with which the Ang-2 preferential binding antibodies interact.
In this experiment, each of the seven hAng-2FD-mFc mutant proteins were captured (˜147-283 RU) on an anti-mouse-Fc surface created through direct chemical coupling to a BIACORE™ chip. Then each Ang-2 antibody (or peptibody, as the case may be) at 100 nM was injected over the captured mFc-tagged hAng-2FD protein surface at a flowrate of 50 μl/min for 180 sec, and the dissociation of variant hAng2-FD-mFc and antibody was monitored in real time for 20 min at 25° C.

T1 sequence (O15123 with tags, fused parts or gaps S417I): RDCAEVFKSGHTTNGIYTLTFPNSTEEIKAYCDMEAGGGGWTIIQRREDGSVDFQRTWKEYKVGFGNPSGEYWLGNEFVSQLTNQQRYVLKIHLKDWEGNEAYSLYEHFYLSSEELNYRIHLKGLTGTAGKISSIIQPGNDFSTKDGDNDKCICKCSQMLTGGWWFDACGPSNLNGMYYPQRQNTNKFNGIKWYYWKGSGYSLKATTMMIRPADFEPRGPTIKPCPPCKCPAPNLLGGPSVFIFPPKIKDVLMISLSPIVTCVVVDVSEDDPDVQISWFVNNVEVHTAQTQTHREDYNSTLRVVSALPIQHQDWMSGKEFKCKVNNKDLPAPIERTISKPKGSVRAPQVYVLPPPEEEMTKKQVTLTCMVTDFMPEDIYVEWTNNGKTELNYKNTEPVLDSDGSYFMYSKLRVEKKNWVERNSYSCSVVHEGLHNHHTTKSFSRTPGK

Substance: H1H685P: human anti-Ang-2 antibody, HCVR/LCVR SEQ ID NOs 18/20; also referred to as mAb1 [Antibody H1H685P]
- Kd: 0.0305 nM
- RU: 127.65 RU
